What all share (assay): AUC
For experiment [1], the target named is Kogenate FS (recombinant full-length factor VIII, HC–LC heterodimer) (human) (UniProt P00451).
Experiment [2] addresses Advate (recombinant full-length factor VIII, HC–LC heterodimer) (human) (UniProt P00451).
Experiment [3] deals with Helixate FS (recombinant full-length factor VIII, HC–LC heterodimer) (human) (UniProt P00451).

The term stoichiometry N denotes the number of molecules, sites or subunits per partner or assembly.

Regarding “Kogenate FS (recombinant full-length factor VIII, HC–LC heterodimer) (from UniProt P00451 20-1332; P00451 1668-2351) (complex)”, in experiment [1], the percent of the protein-related absorbance signal in the 10.5–10.6 S peak was found to be 5% and the stoichiometry N came out at 2.

As for “Advate (recombinant full-length factor VIII, HC–LC heterodimer) (from UniProt P00451 20-1332; P00451 1668-2351) (complex)”, in experiment [2], the percent of the A280 signal in the 12–20 S distribution (Lot 2) stood at 3.8%, the percent of the protein-related absorbance signal in the 10.5–10.6 S peak is 7% and the stoichiometry N turned out to be 2.

Regarding “Helixate FS (recombinant full-length factor VIII, HC–LC heterodimer) (from UniProt P00451 20-1332; P00451 1668-2351) (complex)”, the stoichiometry N in experiment [3] came to 2.

These data come from paper PMC5809250.
